# From patent US20230049152A1
# Target: human CCR8 (human) (UniProt P51685)
# Assay: cell-based or functional assay
binder,measurement,value
"murine anti-human CCR8 mAb 433H (BD Biosciences) (antibody, from another filing, mouse IgG2a, V domains shown) VH: EVQLVETGGGLVQPKGSLRLSCAASGFPFNTFAMNWVRQAPGKGLEWLARIRSKSNNYATYYADSVKDRFTISRDDSRRMLYLLMNNVKFEDTAIYYCVRGKENNYGYAMDYWGQGTSVTVSS VL: DIVMTQAAPSVPVTPGESVSISCRSSQSLLHSNGNTYLYWFLQRPGQSPQLLIYRMSNLASGVPDRFSGSGSGTAFTLRISRVEAEDVGVYYCMQHLEYPFTFGIGTKLELKR","ADCC reporter EC50, mFcgRIV Jurkat cells with CHO/hCCR8 (FIG. 11D)",0.26 nM
same,"CCL1 blocking potency IC50, Ca2+ influx",17.6 nM
same,"induction fold at about 1 nM antibody, mFcgRIV Jurkat NFAT-luciferase reporter",> 12 fold
same,"induction fold plateau at about 40 nM antibody, mFcgRIV Jurkat NFAT-luciferase reporter",13 fold
